# Target: Human IL-12 receptor (human IL-12Rb1 and IL-12Rb2) (human) (UniProt P42701)
# Sequence (Q99665 24-862, chain 2 of 2, other chains not shown): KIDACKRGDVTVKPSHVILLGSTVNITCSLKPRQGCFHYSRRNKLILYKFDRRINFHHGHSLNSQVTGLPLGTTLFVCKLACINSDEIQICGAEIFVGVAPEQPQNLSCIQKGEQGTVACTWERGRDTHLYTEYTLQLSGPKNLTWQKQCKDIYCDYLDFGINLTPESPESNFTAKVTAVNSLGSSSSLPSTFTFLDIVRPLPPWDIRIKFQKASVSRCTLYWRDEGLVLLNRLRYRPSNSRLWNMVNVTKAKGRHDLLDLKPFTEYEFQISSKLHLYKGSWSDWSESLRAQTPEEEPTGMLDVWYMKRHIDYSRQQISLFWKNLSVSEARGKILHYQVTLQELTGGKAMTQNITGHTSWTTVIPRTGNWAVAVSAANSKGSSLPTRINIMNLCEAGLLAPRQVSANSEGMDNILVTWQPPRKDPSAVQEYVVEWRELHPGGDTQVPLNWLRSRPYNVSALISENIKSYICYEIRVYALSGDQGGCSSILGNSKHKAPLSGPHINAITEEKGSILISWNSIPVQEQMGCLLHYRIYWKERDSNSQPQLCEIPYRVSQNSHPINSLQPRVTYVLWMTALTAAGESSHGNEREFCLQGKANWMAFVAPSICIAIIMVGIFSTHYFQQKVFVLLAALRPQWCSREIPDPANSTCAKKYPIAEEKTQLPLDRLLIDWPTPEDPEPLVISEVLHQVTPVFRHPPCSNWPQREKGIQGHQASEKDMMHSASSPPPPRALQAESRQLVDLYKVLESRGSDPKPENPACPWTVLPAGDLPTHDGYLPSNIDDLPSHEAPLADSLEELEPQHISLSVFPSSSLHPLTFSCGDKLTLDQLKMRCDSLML
# Sequence of rhIL-12 (P29460 23-328 limits assumed): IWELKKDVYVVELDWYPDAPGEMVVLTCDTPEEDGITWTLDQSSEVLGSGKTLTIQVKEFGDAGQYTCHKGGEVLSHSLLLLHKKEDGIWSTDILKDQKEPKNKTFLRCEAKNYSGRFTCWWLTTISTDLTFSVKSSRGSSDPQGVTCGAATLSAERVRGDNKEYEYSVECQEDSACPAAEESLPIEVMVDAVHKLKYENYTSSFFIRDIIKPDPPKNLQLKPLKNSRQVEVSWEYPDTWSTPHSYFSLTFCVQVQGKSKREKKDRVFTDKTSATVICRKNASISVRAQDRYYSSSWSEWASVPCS
# Sequence of rhIL-12 (P29459 23-219 limits assumed): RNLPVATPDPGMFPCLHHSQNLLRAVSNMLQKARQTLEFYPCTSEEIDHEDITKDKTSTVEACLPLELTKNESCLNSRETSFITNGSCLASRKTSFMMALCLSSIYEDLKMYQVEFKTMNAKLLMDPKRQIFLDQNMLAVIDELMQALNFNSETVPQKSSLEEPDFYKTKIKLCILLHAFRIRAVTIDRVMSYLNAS
substance,measurement,value
rhIL-12 (from UniProt P29460 23-328; P29459 23-219) (ligand),"EC50 (read off the curve), IL-12 luciferase reporter assay (+ Protease)",200 pM
same,"EC50 (read off the curve), IL-12 luciferase reporter assay (without protease)",200 pM

# — patent publication US20240270806A1
